According to patent US20150086555A1:

B1: TCN-523 (5248_A17) (antibody, V domains shown)
VH: QVQLVQSGAEVKKPGSSVKVSCKASGGSFSNYAFSWVRQAPGQGLEWMGGTIPLLGTTNYAQKFQGRVTISADQFTSTAYMELGSLRSEDTAVYYCTRRKMTTAFDSWGQGTLVTVSS
VL: QPVLTQPPSASASLGASVTLTCTLSSAYSNYKVDWYQQRPGKGPRFVMRVGTGGIVGSKGDGIPDRFSVLGSGLNRYLTIKNIQEEDESDYHCGADHGSGSNFVSPYVFGGGTKLTVL
B2: TCN-504 (3251_K17) (antibody, V domains shown)
VH: QVQLQESGPGLVKPSETLSLTCAVSGVSISNIDFYWGWIRQPPGKGLEWIGNIYYTGITFYNPSLSSRVAISIDTSKNQFSLTLTSVTAADTAMYYCARHYGDSEAINDAFDIWGQGTMLTVSS
VL: EIVMTQSPATLSVSPGERATLSCRASQSVGNSLAWYQQRPGQAPRLLIYGASTRATGIPPRFSGSGSGTEFTLTISSLQTEDFAVYYCQQYINWRPLSFGGGTKVEIK

Columns and labels:
Details in all cases: remark: other sources report otherwise
[1] = target: T1, recombinant soluble homotrimeric HA of A/Solomon Islands/3/06 (H1N1) (Influenza A virus A/Solomon Islands/3/2006(H1N1)); experiment: trimeric HA microarray, transfection supernatant set 1
[2] = target: T2, recombinant soluble homotrimeric HA of A/Hong Kong/1073/99 (H9N2) (Influenza A virus A/Hong Kong/1073/99 (H9N2)); experiment: trimeric HA microarray, transfection supernatant set 2
[3] = target: recombinant soluble homotrimeric HA of A/Hong Kong/2108/03 (H9N2) (Influenza A virus A/HK/2108/2003(H9N2)); experiment: as above
[4] = target: T3, recombinant soluble homotrimeric HA of A/northern shoveler/California/HKWF115/07 (H6) (Influenza A virus A/northern shoveler/California/HKWF115/2007(H6N1)); experiment: as above
[5] = target: T2, recombinant soluble homotrimeric HA of …; experiment: trimeric HA microarray, transfection supernatant set 3
[6] = target: T3, recombinant soluble homotrimeric HA of …; experiment: as above
[7] = target: recombinant soluble homotrimeric HA of A/Anhui/1/05 (H5N1) (Influenza A virus A/Anhui/1/2005(H5N1)); experiment: trimeric HA microarray, transfection supernatant set 4
[8] = target: recombinant soluble homotrimeric HA of A/California/4/09 (H1N1) (Influenza A virus A/California/04/2009(H1N1)); experiment: as above
[9] = target: recombinant soluble homotrimeric HA of A/Egypt/3300-NAMRU3/08 (H5N1) (Influenza A virus A/Egypt/3300-NAMRU3/2008(H5N1)); experiment: as above
[10] = target: recombinant soluble homotrimeric HA of A/Indonesia/5/05 (H5N1) (Influenza A virus A/Indonesia/5/2005(H5N1)); experiment: as above
[11] = target: recombinant soluble homotrimeric HA of A/Japan/305/57 (H2N2) (Influenza A virus A/Japan/305/1957(H2N2)); experiment: as above
[12] = target: recombinant soluble homotrimeric HA of A/Netherlands/219/03 (H7N7) (Influenza A virus A/Netherlands/219/03(H7N7)); experiment: as above
[13] = target: T1, recombinant soluble homotrimeric HA of …; experiment: as above
[14] = target: recombinant soluble homotrimeric HA of A/South Carolina/1/18 (H1N1) (Influenza A virus A/South Carolina/1/18 (H1N1)); experiment: as above
[15] = target: recombinant soluble homotrimeric HA of A/Vietnam/1203/04 (H5N1) (Influenza A virus A/VietNam/1203/2004(H5N1)); experiment: as above
[16] = target: recombinant soluble homotrimeric HA of A/chicken/Vietnam/NCVD-016/08 (H5N1) (Influenza A virus A/chicken/Vietnam/NCVD-016/2008(H5N1)); experiment: as above
[17] = target: T3, recombinant soluble homotrimeric HA of …; experiment: as above
[18] = target: T4, recombinant soluble homotrimeric HA of A/Wisconsin/67/05 (H3N2) (Influenza A virus A/Wisconsin/67/2005(H3N2)); experiment: trimeric HA microarray, transfection supernatant set 2
[19] = target: T5, recombinant soluble homotrimeric HA of A/duck/Yangzhou/02/05 (H8N4) (Influenza A virus A/duck/Yangzhou/02/2005(H8N4)); experiment: as above
[20] = target: T6, recombinant soluble homotrimeric HA of A/swine/Ontario/01911-2/99 (H4N6) (Influenza A virus A/Swine/Ontario/01911-2/99 (H4N6)); experiment: as above
[21] = target: T4, recombinant soluble homotrimeric HA of …; experiment: trimeric HA microarray, transfection supernatant set 3
[22] = target: T5, recombinant soluble homotrimeric HA of …; experiment: as above
[23] = target: T6, recombinant soluble homotrimeric HA of …; experiment: as above
[24] = target: T4, recombinant soluble homotrimeric HA of …; experiment: trimeric HA microarray, transfection supernatant set 4
[25] = target: T5, recombinant soluble homotrimeric HA of …; experiment: as above
[26] = target: T6, recombinant soluble homotrimeric HA of …; experiment: as above

Binder | Trimeric HA Binding: RLU [1] | Trimeric HA Binding: RLU [7] | Trimeric HA Binding: RLU [8] | Trimeric HA Binding: RLU [9] | Trimeric HA Binding: RLU [10] | Trimeric HA Binding: RLU [11] | Trimeric HA Binding: RLU [12] | Trimeric HA Binding: RLU [13] | Trimeric HA Binding: RLU [14] | Trimeric HA Binding: RLU [15] | Trimeric HA Binding: RLU [16] | further results
B1 | 6780 RLU | 48 RLU | 28800 RLU | 33400 RLU | 24500 RLU | 3840 RLU | 443 RLU | 371 RLU | 23000 RLU | 30900 RLU | 24000 RLU | Trimeric HA Binding: RLU [2]: 31300 RLU; Trimeric HA Binding: RLU [3]: 18 RLU; Trimeric HA Binding: RLU [4]: 21200 RLU; Trimeric HA Binding: RLU [5]: 24200 RLU; Trimeric HA Binding: RLU [6]: 29400 RLU; Trimeric HA Binding: RLU [17]: 25100 RLU
B2 | 29800 RLU | 14100 RLU | 549 RLU | 24800 RLU | 18200 RLU | 19600 RLU | 6710 RLU | 14600 RLU | 21700 RLU | 25700 RLU | 19200 RLU | Trimeric HA Binding: RLU [18]: 21600 RLU; Trimeric HA Binding: RLU [19]: 17800 RLU; Trimeric HA Binding: RLU [20]: 32500 RLU; Trimeric HA Binding: RLU [21]: 21400 RLU; Trimeric HA Binding: RLU [22]: 19600 RLU; Trimeric HA Binding: RLU [23]: 34500 RLU; Trimeric HA Binding: RLU [24]: 20600 RLU; Trimeric HA Binding: RLU [25]: 19900 RLU; Trimeric HA Binding: RLU [26]: 21800 RLU
